Data from paper PMC7341526.

Target: vitreous collagen fibrils (rabbit), in the collagen-containing pellet (rabbit (endogenous in rabbit vitreous))
Experiment: co-sedimentation; vitreous of uninjected rabbit eyes digested with hyaluronan lyase (24 h, 37 °C), centrifuged 13 000g 30 min; opticin in supernatant and collagen-containing pellet quantified by SRM-MS

Q: For “endogenous rabbit opticin (natural protein)”, which percent of opticin in the collagen-containing pellet is on record?
A: Its percent of opticin in the collagen-containing pellet is 6%.
